Measured values from patent US12517112B2, “Immune cell organoid co-cultures” (Koninklijke Nederlandse Akademie van Wetenschappen, priority 2017, dated 2026).

Experiments:
HLA-A2 = HLA-A2 expression on CRC organoid lines with and without IFN-γ stimulation (flow cytometry); format: cell-based; details: HLA-A2 negative CRC organoids, 20 ng/ml recombinant human IFN-γ
Procedure: FIG. 10. HLA-A2 expression on clonally expanded HLA-A2^+ and HLA-A2^− CRC organoid lines. […] Flow cytometry analysis of HLA-A2 expression on normal (left panel), HLA-A2^+ CRC (middle panel) and HLA-A2^− CRC (right panel) lines with and without stimulation with 20 ng/ml recombinant human IFN-γ.
(§1) Cells were sorted as single cells into 96-well plates using a BD FACS Aria (BD Biosciences) cytometer. For flow cytometry, the following antibodies were used (all anti-human): CD8-PE (clone RPA-T8), CD45-PerCP-Cy5.5 (2D1), CD274 (PD-L1)-APC (MIH1) (all BD Biosciences), CD279 (PD-1)-PE (EH12.2H7, Biolegend), HLA-A2^− PE (BB7.2, Santa Cruz).

CD274 (PD-L1) = test: PD-L1 expression in colon organoid lines upon IFN-γ stimulation (qPCR and flow cytometry); format: cell-based; details: organoids treated with 20 ng/mL recombinant human IFN-γ
Description: as §1

B1: IFN-γ: recombinant human interferon gamma used to stimulate organoids (20 ng/mL) (protein, UniProt P01579 24-161, looked up)
Interferon gamma: QDPYVKEAENLKKYFNAGHSDVADNGTLFLGILKNWKEESDRKIMQSQIVSFYFKLFKNFKDDQSIQKSVETIKEDMNVKFFNSNKKKRDDFEKLTNYSVTDLNVQRKAIHELIQVMAELSPAAKTGKRKRSQMLFRG
HLA-A2 re-expression (HLA-A2): did not trigger HLA-A2 re-expression | PD-L1 expression on transcript and protein level (CD274 (PD-L1)): dramatically upregulated
